Measurements: patent US20210388087A1 (Chugai, published 2021)

T1: Human CD3eg linker (human)
T1 construct: Single chain: epsilon and gamma subunits of human CD3 joined by a 29-mer linker, Flag-tag at the C-terminus; also called recombinant human CD3
T1 chain: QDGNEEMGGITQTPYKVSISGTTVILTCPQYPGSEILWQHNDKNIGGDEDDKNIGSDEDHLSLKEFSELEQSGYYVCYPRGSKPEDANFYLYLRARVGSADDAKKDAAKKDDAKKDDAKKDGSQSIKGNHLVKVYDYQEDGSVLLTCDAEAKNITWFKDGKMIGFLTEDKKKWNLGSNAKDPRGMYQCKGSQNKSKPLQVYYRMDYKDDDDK


Molecular target: T1, Human CD3eg linker
Test: Biacore SPR, vs template H183/L072

fold change of affinity [fold]	Binder
0.8	H183/L072 VH K52bG (antibody, name in Kabat numbering, V domains shown) VH: QVQLVESGGGLVQPGRSLRLSCAASGFTFSNAWMHWVRQAPGKGLEWVAQIKDGGNAYAAYYAPSVKGRFTISRDDSKNSIYLQMNSLKTEDTAVYYCHYVHYASASTVLPAFGVDAWGQGTTVTVSS VL: DIVMTQSPLSLPVTPGEPASISCQASQELVHMNRNTYLHWYQQKPGQAPRLLIYKVSNRFPGVPDRFSGSGSGTDFTLKISRVEAEDVGVYYCAQGTSVPFTFGQGTKLEIK
0.5	H183/L072 VH K52bM (antibody, name in Kabat numbering, V domains shown) VH: QVQLVESGGGLVQPGRSLRLSCAASGFTFSNAWMHWVRQAPGKGLEWVAQIKDMGNAYAAYYAPSVKGRFTISRDDSKNSIYLQMNSLKTEDTAVYYCHYVHYASASTVLPAFGVDAWGQGTTVTVSS VL: DIVMTQSPLSLPVTPGEPASISCQASQELVHMNRNTYLHWYQQKPGQAPRLLIYKVSNRFPGVPDRFSGSGSGTDFTLKISRVEAEDVGVYYCAQGTSVPFTFGQGTKLEIK
0.7	H183/L072 VH K52bQ (antibody, name in Kabat numbering, V domains shown) VH: QVQLVESGGGLVQPGRSLRLSCAASGFTFSNAWMHWVRQAPGKGLEWVAQIKDQGNAYAAYYAPSVKGRFTISRDDSKNSIYLQMNSLKTEDTAVYYCHYVHYASASTVLPAFGVDAWGQGTTVTVSS VL: DIVMTQSPLSLPVTPGEPASISCQASQELVHMNRNTYLHWYQQKPGQAPRLLIYKVSNRFPGVPDRFSGSGSGTDFTLKISRVEAEDVGVYYCAQGTSVPFTFGQGTKLEIK
0.5	H183/L072 VH K52bE (antibody, name in Kabat numbering, V domains shown) VH: QVQLVESGGGLVQPGRSLRLSCAASGFTFSNAWMHWVRQAPGKGLEWVAQIKDEGNAYAAYYAPSVKGRFTISRDDSKNSIYLQMNSLKTEDTAVYYCHYVHYASASTVLPAFGVDAWGQGTTVTVSS VL: DIVMTQSPLSLPVTPGEPASISCQASQELVHMNRNTYLHWYQQKPGQAPRLLIYKVSNRFPGVPDRFSGSGSGTDFTLKISRVEAEDVGVYYCAQGTSVPFTFGQGTKLEIK
0.8	H183/L072 VH K52bI (antibody, name in Kabat numbering, V domains shown) VH: QVQLVESGGGLVQPGRSLRLSCAASGFTFSNAWMHWVRQAPGKGLEWVAQIKDIGNAYAAYYAPSVKGRFTISRDDSKNSIYLQMNSLKTEDTAVYYCHYVHYASASTVLPAFGVDAWGQGTTVTVSS VL: DIVMTQSPLSLPVTPGEPASISCQASQELVHMNRNTYLHWYQQKPGQAPRLLIYKVSNRFPGVPDRFSGSGSGTDFTLKISRVEAEDVGVYYCAQGTSVPFTFGQGTKLEIK
0.4	H183/L072 VH K52bF (antibody, name in Kabat numbering, V domains shown) VH: QVQLVESGGGLVQPGRSLRLSCAASGFTFSNAWMHWVRQAPGKGLEWVAQIKDFGNAYAAYYAPSVKGRFTISRDDSKNSIYLQMNSLKTEDTAVYYCHYVHYASASTVLPAFGVDAWGQGTTVTVSS VL: DIVMTQSPLSLPVTPGEPASISCQASQELVHMNRNTYLHWYQQKPGQAPRLLIYKVSNRFPGVPDRFSGSGSGTDFTLKISRVEAEDVGVYYCAQGTSVPFTFGQGTKLEIK
0.7	H183/L072 VH K52bH (antibody, name in Kabat numbering, V domains shown) VH: QVQLVESGGGLVQPGRSLRLSCAASGFTFSNAWMHWVRQAPGKGLEWVAQIKDHGNAYAAYYAPSVKGRFTISRDDSKNSIYLQMNSLKTEDTAVYYCHYVHYASASTVLPAFGVDAWGQGTTVTVSS VL: DIVMTQSPLSLPVTPGEPASISCQASQELVHMNRNTYLHWYQQKPGQAPRLLIYKVSNRFPGVPDRFSGSGSGTDFTLKISRVEAEDVGVYYCAQGTSVPFTFGQGTKLEIK
0.5	H183/L072 VH K52bP (antibody, name in Kabat numbering, V domains shown) VH: QVQLVESGGGLVQPGRSLRLSCAASGFTFSNAWMHWVRQAPGKGLEWVAQIKDPGNAYAAYYAPSVKGRFTISRDDSKNSIYLQMNSLKTEDTAVYYCHYVHYASASTVLPAFGVDAWGQGTTVTVSS VL: DIVMTQSPLSLPVTPGEPASISCQASQELVHMNRNTYLHWYQQKPGQAPRLLIYKVSNRFPGVPDRFSGSGSGTDFTLKISRVEAEDVGVYYCAQGTSVPFTFGQGTKLEIK
0.5	H183/L072 VH K52bN (antibody, name in Kabat numbering, V domains shown) VH: QVQLVESGGGLVQPGRSLRLSCAASGFTFSNAWMHWVRQAPGKGLEWVAQIKDNGNAYAAYYAPSVKGRFTISRDDSKNSIYLQMNSLKTEDTAVYYCHYVHYASASTVLPAFGVDAWGQGTTVTVSS VL: DIVMTQSPLSLPVTPGEPASISCQASQELVHMNRNTYLHWYQQKPGQAPRLLIYKVSNRFPGVPDRFSGSGSGTDFTLKISRVEAEDVGVYYCAQGTSVPFTFGQGTKLEIK
0	H183/L072 VH K52bD (antibody, name in Kabat numbering, V domains shown) VH: QVQLVESGGGLVQPGRSLRLSCAASGFTFSNAWMHWVRQAPGKGLEWVAQIKDDGNAYAAYYAPSVKGRFTISRDDSKNSIYLQMNSLKTEDTAVYYCHYVHYASASTVLPAFGVDAWGQGTTVTVSS VL: DIVMTQSPLSLPVTPGEPASISCQASQELVHMNRNTYLHWYQQKPGQAPRLLIYKVSNRFPGVPDRFSGSGSGTDFTLKISRVEAEDVGVYYCAQGTSVPFTFGQGTKLEIK
1.2	H183/L072 VH K52bR (antibody, name in Kabat numbering, V domains shown) VH: QVQLVESGGGLVQPGRSLRLSCAASGFTFSNAWMHWVRQAPGKGLEWVAQIKDRGNAYAAYYAPSVKGRFTISRDDSKNSIYLQMNSLKTEDTAVYYCHYVHYASASTVLPAFGVDAWGQGTTVTVSS VL: DIVMTQSPLSLPVTPGEPASISCQASQELVHMNRNTYLHWYQQKPGQAPRLLIYKVSNRFPGVPDRFSGSGSGTDFTLKISRVEAEDVGVYYCAQGTSVPFTFGQGTKLEIK
0.6	H183/L072 VH K52bL (antibody, name in Kabat numbering, V domains shown) VH: QVQLVESGGGLVQPGRSLRLSCAASGFTFSNAWMHWVRQAPGKGLEWVAQIKDLGNAYAAYYAPSVKGRFTISRDDSKNSIYLQMNSLKTEDTAVYYCHYVHYASASTVLPAFGVDAWGQGTTVTVSS VL: DIVMTQSPLSLPVTPGEPASISCQASQELVHMNRNTYLHWYQQKPGQAPRLLIYKVSNRFPGVPDRFSGSGSGTDFTLKISRVEAEDVGVYYCAQGTSVPFTFGQGTKLEIK

Continued, binder first:

Binder	fold change of affinity [fold]
H183/L072 VH K52Q (antibody, name in Kabat numbering, V domains shown) VH: QVQLVESGGGLVQPGRSLRLSCAASGFTFSNAWMHWVRQAPGKGLEWVAQIQDKGNAYAAYYAPSVKGRFTISRDDSKNSIYLQMNSLKTEDTAVYYCHYVHYASASTVLPAFGVDAWGQGTTVTVSS VL: DIVMTQSPLSLPVTPGEPASISCQASQELVHMNRNTYLHWYQQKPGQAPRLLIYKVSNRFPGVPDRFSGSGSGTDFTLKISRVEAEDVGVYYCAQGTSVPFTFGQGTKLEIK	0.3
H183/L072 VH K52W (antibody, name in Kabat numbering, V domains shown) VH: QVQLVESGGGLVQPGRSLRLSCAASGFTFSNAWMHWVRQAPGKGLEWVAQIWDKGNAYAAYYAPSVKGRFTISRDDSKNSIYLQMNSLKTEDTAVYYCHYVHYASASTVLPAFGVDAWGQGTTVTVSS VL: DIVMTQSPLSLPVTPGEPASISCQASQELVHMNRNTYLHWYQQKPGQAPRLLIYKVSNRFPGVPDRFSGSGSGTDFTLKISRVEAEDVGVYYCAQGTSVPFTFGQGTKLEIK	0
H183/L072 VH K52T (antibody, name in Kabat numbering, V domains shown) VH: QVQLVESGGGLVQPGRSLRLSCAASGFTFSNAWMHWVRQAPGKGLEWVAQITDKGNAYAAYYAPSVKGRFTISRDDSKNSIYLQMNSLKTEDTAVYYCHYVHYASASTVLPAFGVDAWGQGTTVTVSS VL: DIVMTQSPLSLPVTPGEPASISCQASQELVHMNRNTYLHWYQQKPGQAPRLLIYKVSNRFPGVPDRFSGSGSGTDFTLKISRVEAEDVGVYYCAQGTSVPFTFGQGTKLEIK	0.5
H183/L072 VH K52R (antibody, name in Kabat numbering, V domains shown) VH: QVQLVESGGGLVQPGRSLRLSCAASGFTFSNAWMHWVRQAPGKGLEWVAQIRDKGNAYAAYYAPSVKGRFTISRDDSKNSIYLQMNSLKTEDTAVYYCHYVHYASASTVLPAFGVDAWGQGTTVTVSS VL: DIVMTQSPLSLPVTPGEPASISCQASQELVHMNRNTYLHWYQQKPGQAPRLLIYKVSNRFPGVPDRFSGSGSGTDFTLKISRVEAEDVGVYYCAQGTSVPFTFGQGTKLEIK	0.8
H183/L072 VH K52bA (antibody, name in Kabat numbering, V domains shown) VH: QVQLVESGGGLVQPGRSLRLSCAASGFTFSNAWMHWVRQAPGKGLEWVAQIKDAGNAYAAYYAPSVKGRFTISRDDSKNSIYLQMNSLKTEDTAVYYCHYVHYASASTVLPAFGVDAWGQGTTVTVSS VL: DIVMTQSPLSLPVTPGEPASISCQASQELVHMNRNTYLHWYQQKPGQAPRLLIYKVSNRFPGVPDRFSGSGSGTDFTLKISRVEAEDVGVYYCAQGTSVPFTFGQGTKLEIK	0.7
H183/L072 VH K52V (antibody, name in Kabat numbering, V domains shown) VH: QVQLVESGGGLVQPGRSLRLSCAASGFTFSNAWMHWVRQAPGKGLEWVAQIVDKGNAYAAYYAPSVKGRFTISRDDSKNSIYLQMNSLKTEDTAVYYCHYVHYASASTVLPAFGVDAWGQGTTVTVSS VL: DIVMTQSPLSLPVTPGEPASISCQASQELVHMNRNTYLHWYQQKPGQAPRLLIYKVSNRFPGVPDRFSGSGSGTDFTLKISRVEAEDVGVYYCAQGTSVPFTFGQGTKLEIK	0
H183/L072 VH K52Y (antibody, name in Kabat numbering, V domains shown) VH: QVQLVESGGGLVQPGRSLRLSCAASGFTFSNAWMHWVRQAPGKGLEWVAQIYDKGNAYAAYYAPSVKGRFTISRDDSKNSIYLQMNSLKTEDTAVYYCHYVHYASASTVLPAFGVDAWGQGTTVTVSS VL: DIVMTQSPLSLPVTPGEPASISCQASQELVHMNRNTYLHWYQQKPGQAPRLLIYKVSNRFPGVPDRFSGSGSGTDFTLKISRVEAEDVGVYYCAQGTSVPFTFGQGTKLEIK	0
H183/L072 VH K52S (antibody, name in Kabat numbering, V domains shown) VH: QVQLVESGGGLVQPGRSLRLSCAASGFTFSNAWMHWVRQAPGKGLEWVAQISDKGNAYAAYYAPSVKGRFTISRDDSKNSIYLQMNSLKTEDTAVYYCHYVHYASASTVLPAFGVDAWGQGTTVTVSS VL: DIVMTQSPLSLPVTPGEPASISCQASQELVHMNRNTYLHWYQQKPGQAPRLLIYKVSNRFPGVPDRFSGSGSGTDFTLKISRVEAEDVGVYYCAQGTSVPFTFGQGTKLEIK	0
